The subject of one test is MB114 cells. Put plainly: angiogenic sprouting in rat tail collagen matrices. The format is cell-based, murine. How it is done:
(§1) The effect putative angiogenic agents had on MB114 cell activities were determined as follows: (i) cell proliferation using a [^3H]thymidine incorporation assay as described (Albig et al, 2006; Albig and Schiemann, 2004; Albig and Schiemann, 2005); (ii) cell invasion through Matrigel matrices using a modified Boyden-chamber assay as described (Albig et al, 2006; Albig and Schiemann, 2004; Albig and Schiemann, 2005); (iii) p38 MAPK phosphorylation using immunoblot analyses as described (Albig et al, 2006; Albig and Schiemann, 2004; Albig and Schiemann, 2005); (iv) angiogenic sprouting in rat tail collagen matrices as described (Albig et al, 2006; Albig and Schiemann, 2004); and (v) Hes1- and SBE-driven luciferase reporter gene assays as described (Albig et al, 2006; Albig and Schiemann, 2004; Albig and Schiemann, 2005).
Finally, it was determined whether expression of these putative angiogenic factors could effect the angiogenic sprouting of quiescent MB114 cells monolayers. MB114 cells expressing either GFP or various putative angiogenic agents were grown to confluency, and subsequently were overlaid with rat tail collagen matrices. Angiogenic sprouting by quiescent EC monolayers was stimulated by inclusion of 10% FBS and allowed to proceed for 5 days. The quantity of invading angiogenic sprouts was determined by manual counting under a light microscope.
Based on the findings described in the Examples above, the inventors hypothesized that MAGP-2 promotes angiogenesis by antagonizing Notch1 signaling. To test this hypothesis, it was first determined whether inhibiting Notch signaling in MB114 cells would enhance their angiogenic sprouting. In doing so, MB114 cells were transiently transfected with the Hes1-luciferase reporter gene (and pCMV-β-gal cDNA as control), and subsequently were treated overnight with or without the highly specific gamma-secretase inhibitor, DAPT (Sastre et al, 2001), which inhibits S3-mediated cleavage of Notch1 and, consequently, NICD-mediated induction of Hes1 expression. Afterward, luciferase and β-gal activities were determined. […] In this experiment, quiescent MB114 cell monolayers were overlaid with rat tail collagen matrices, and were induced to form angiogenic sprouts by addition of 10% FBS supplemented with or without DAPT (10 μM). Five days later the number of invading angiogenic spouts were quantified by manual counting on a light microscope. Based on these findings, the inventors conclude that Notch activation functions in mediating angiostasis in MB114 cells. […] Collectively, these findings indicate that Notch1 signaling antagonizes angiogenic sprouting in MB114 cells, and that downregulation of Notch1 signaling components is necessary for angiogenesis activation in MB114 cells.
Having shown that Notch1 signaling mediates angiostasis in MB114 cells, the inventors next asked whether MAGP-2 promotes angiogenesis in MB114 cells via its ability to antagonize Notch signaling. To do so, MAGP-2-expressing MB114 cells were engineered to constitutively express active Notch1 NICD fragment in an attempt to overcome the block of Notch processing mediated by MAGP-2. More particularly, GFP-, MAGP-2-, and MAGP-2/N1ICD-expressing MB114 cells were transiently transfected with pHes1-luciferase and pCMV-β-gal cDNAs. Luciferase and β-gal activities were determined 48 h post-transfection. As the inventors observed previously, MAGP-2 expression reduced Hes1-luciferase activity in MB114 cells (FIG. 5C), a reaction that was bypassed by co-expression of NICD in these cells (FIG. 5C). […] In this experiment, quiescent monolayers of GFP-, MAGP-2-, and MAGP-2/N1ICD-expressing MB114 cells were overlaid with rat tail collagen matrices and incubated in the absence or presence of 10% FBS for 5 days. Afterward, the number of invading angiogenic sprouts were determined by manual counting under a light microscope.

Test [1] deals with Hes1 promoter (Notch1 signaling). The test can be described thus: Hes1-driven luciferase reporter gene assay in MB114 cells. The format is cell-based, murine. As to the method: as §1
MAGP-2 can interact physically with Notch1 and its ligand, Jagged-1 (Miyamoto et al, 2006; Nehring et al, 2005), resulting in the ectodomain shedding of both molecules from the cell surface. Notch signaling also plays an essential role in regulating normal vessel development and angiogenesis in mammals (Leong and Karsan, 2005; Shawber and Kitajewski, 2004). Given these two facts, the inventors hypothesized that MAGP-2 promotes angiogenesis by modulating Notch1 signaling. To test this hypothesis, first measured were changes in luciferase expression driven by a Hes1-luciferase reporter gene whose expression is induced by Notch1 activation (Iso et al, 2003). MB114 and HUVEC cells were transiently transfected either with pHes1-luciferase, pCMV-β-gal, and MAGP-2 cDNAs, or with pHes1-luciferase and pCMV-β-gal cDNAs and subsequently stimulated with rMAGP-2 (1 or 5 mg/ml). Afterward, luciferase and β-gal activities contained in detergent-solubilized cell extracts were measured. In addition, GFP- and MAGP-2-expressing MB114 cells were transiently transfected with pHes1-luciferase and pCMV-β-gal cDNAs, together with or without Jagged-1 cDNA as indicated. Afterward, luciferase and β-gal activities were measured as above.
To further investigate the impact of MAGP-2 on Notch1 processing and NICD accumulation, the inventors took advantage of recent findings showing that the ability of TGF-β to induce Hes1 promoter activity requires Smad3 to interact physically with NICD (Blokzijl et al, 2003), a reaction that is dispensable for canonical Smad3-mediated signaling stimulated by TGF-β (Blokzijl et al, 2003). It was therefore reasoned that the ability of MAGP-2 to inhibit NICD production in ECs would reduce the capacity of TGF-β to induce luciferase expression driven by the Hes1 promoter, but not that driven by the synthetic Smad2/3-binding element (SBE). GFP- and MAGP-2-expressing MB114 cells were transiently transfected with either pHes1- or pSBE-luciferase, both together with pCMV-β-gal as indicated in FIG. 4B. Afterward, the resulting transfectants were stimulated overnight with increasing concentrations of TGF-β1 (0-5 ng/ml).
Based on the findings described in the Examples above, the inventors hypothesized that MAGP-2 promotes angiogenesis by antagonizing Notch1 signaling. To test this hypothesis, it was first determined whether inhibiting Notch signaling in MB114 cells would enhance their angiogenic sprouting. […] Afterward, luciferase and β-gal activities were determined. […]
(In general: In a reporter assay the amount or activity of a reporter protein is the signal.)

Test [2] has the same test system. Put plainly: Hes1-driven luciferase reporter gene assay in HUVEC cells. On the set-up: dose or concentration left out as unconfirmed. The format is cell-based, human. As to the method:
as §1
MAGP-2 can interact physically with Notch1 and its ligand, Jagged-1 (Miyamoto et al, 2006; Nehring et al, 2005), resulting in the ectodomain shedding of both molecules from the cell surface. […] To test this hypothesis, first measured were changes in luciferase expression driven by a Hes1-luciferase reporter gene whose expression is induced by Notch1 activation (Iso et al, 2003). […] Afterward, luciferase and β-gal activities contained in detergent-solubilized cell extracts were measured. […] Afterward, luciferase and β-gal activities were measured as above. […]

A further test has as its system MCA102 fibrosarcomas. Put plainly: MCA102 fibrosarcomas produced in mice. The format is in vivo. Particulars: unpublished observation.

Entries after “also recorded” stand apart in the source; their conditions may differ.

B1: MAGP-2: secreted glycoprotein (25 kDa); stably expressed in MB114 cells by bicistronic retroviral transduction, Myc-His tagged (protein)
chain: QRGDDVPETFTDDPNLVNDPSTDDTALADITPSTDDLAGDKNATAECRDEKFACTRLYSVHRPVRQCVHQSCFTSLRRMYIINNEICSRLVCKEHEAMKDELCRQMAGLPPRRLRRSNYFRLPPCENMNLQRPDGL
modifications: left off: small tags and cut ends
notes: secreted glycoprotein (25 kDa); stably expressed in MB114 cells by bicistronic retroviral transduction, Myc-His tagged
For B1, the “angiogenic sprouting of quiescent MB114 cell monolayers” value with MB114 cells (MB114 cells stably expressing the transgene vs GFP, 10% FBS, 5 days) is “significantly increased”. In addition, the “ability of Jagged-1 to induce Hes1-luciferase activity” value in test [1] (MAGP-2-expressing vs GFP-expressing MB114 cells, with Jagged-1 cDNA) is “abrogated”. The “ability of TGF-β to stimulate Hes1-luciferase activity” value in test [1] (MAGP-2-expressing vs GFP-expressing MB114 cells, TGF-β1 0-5 ng/ml overnight) was “significantly decreased”. In test [1] (MAGP-2 expression in MB114 cells), the Hes1-driven luciferase activity result is on record as “repressed; also recorded: reduced”. Besides, the Hes1-driven luciferase activity entry in test [2] (MAGP-2 expression in HUVEC cells) is listed as “repressed”. Also, in the test with MCA102 fibrosarcomas, the “growth of MCA102 fibrosarcomas produced in mice” value is reported as “significantly increase” and the “vascularization of MCA102 fibrosarcomas produced in mice” value is “significantly increase”.

B2: rMAGP-2: recombinant FLAG-tagged MAGP-2 purified from bacterial cell extracts by anti-FLAG chromatography (protein, UniProt Q9QZJ6 29-164, looked up)
Microfibrillar-associated …: QRGDDVPETFTDDPNLVNDPSTDDTALADITPSTDDLAGDKNATAECRDEKFACTRLYSVHRPVRQCVHQSCFTSLRRMYIINNEICSRLVCKEHEAMKDELCRQMAGLPPRRLRRSNYFRLPPCENMNLQRPDGL
modifications: FLAG tag
notes: recombinant FLAG-tagged MAGP-2 purified from bacterial cell extracts by anti-FLAG chromatography
Regarding B2, the “angiogenic sprouting of quiescent MB114 cell monolayers” value in the test with MB114 cells (purified recombinant protein added, 1 μg/ml) was “stimulated”. Further, the Hes1-driven luciferase activity result in test [1] (MB114 cells stimulated with recombinant protein, 1 or 5 mg/ml) was “repressed”; in test [2] (HUVEC cells stimulated with recombinant protein) it was “repressed”.

Source of the values: patent US8629107B2, “Genes and proteins associated with angiogenesis and uses thereof” (National Jewish Health, priority 2005, dated 2014).
